Laboratory results from PMC4587768.

Tests used:
[1] = molecular target: BG505 SOSIP-sCD4 complex (HIV-1 (strain BG505) | human) (UniProt Q2N0S6); experiment: cryo-EM structure
[2] = molecular target: BG505 SOSIP-sCD4 complex (HIV-1 (strain BG505) | human) (UniProt Q2N0S6); experiment: negative-stain single-particle EM
[3] = molecular target: BG505 SOSIP.664 soluble HIV-1 Env trimer (HIV-1 (strain BG505)) (UniProt Q2N0S6); experiment: cryo-EM structure
[4] = molecular target: BG505 SOSIP.664 soluble HIV-1 Env trimer (HIV-1 (strain BG505)) (UniProt Q2N0S6); experiment: negative-stain single-particle EM

Substance | stoichiometry N (Fabs per trimer) [1] | stoichiometry N (copies per trimer) [2] | stoichiometry N (sCD4 per trimer) [3] | stoichiometry N (copies per trimer) [4]
17b Fab (CD4-induced antibody) | 3 | 3 | – | –
sCD4 (CD4 domains 1 and 2) (domain or fragment) | – | – | 3 | 3
